Measured values as given in article PMC7374170, “TRIB3-EGFR interaction promotes lung cancer progression and defines a therapeutic target” (Nature Communications, 2020).

Molecular target: TRIB3 (tribbles pseudokinase 3), purified protein (UniProt Q96RU7)
Experiment: FP

Sequence of TRIB3 (tribbles pseudokinase 3), purified protein (Q96RU7 whole entry): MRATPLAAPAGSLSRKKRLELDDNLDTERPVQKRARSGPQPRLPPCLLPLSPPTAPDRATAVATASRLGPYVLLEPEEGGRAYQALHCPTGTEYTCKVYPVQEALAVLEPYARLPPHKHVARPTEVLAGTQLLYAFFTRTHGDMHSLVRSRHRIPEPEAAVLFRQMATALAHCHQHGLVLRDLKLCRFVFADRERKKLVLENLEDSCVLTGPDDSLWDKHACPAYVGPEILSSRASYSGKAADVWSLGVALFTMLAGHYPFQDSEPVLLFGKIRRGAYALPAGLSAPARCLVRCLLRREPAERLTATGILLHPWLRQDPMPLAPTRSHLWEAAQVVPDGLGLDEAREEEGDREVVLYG

IC50: 90.3 nM | Ki: 27.7 nM
Substance: SAH-JGZ4, stapled JGZ peptide (from UniProt P00533)
